Source: US20260042849A1, “PROTEASE-CLEAVABLE MOIETIES AND METHODS OF USE THEREOF” (CytomX Therapeutics, Inc., priority 2022, published 2026)
Values joined by “and” are separate entries in the source; they are usually repeats but may differ in a detail not shown here. Equal values may be shown once. Read-outs that look alike come from different tables or passages of the source. Ends that are not written are not given here.

Legend:
[1] = test system: H292 (human lung cancer-derived cell line) subcutaneous xenograft tumors; assay: In vivo efficacy in mouse H292 xenograft model; design: species or system nu/nu mice; conditions: 9 mg/kg intraperitoneally on day 1, H292 xenograft
Protocol: In this study, H292 (human lung cancer-derived cell line) subcutaneous xenograft tumors in female nu/nu mice of 6-8 weeks of age were grown to an average volume of 95-247 mm^3. […] The mice were then randomized into groups of 8 mice each and each group was dosed intraperitoneally on day 1 with 9 mg/kg of the indicated test article.

[2] = test system: human bone marrow aspirates; assay: In situ stability in human bone marrow aspirates; assay type: in vitro ADME; conditions: 20 μg/mL, 37° C., 21 or 24 hours; normalized to CM 2001 cleavage
Protocol: Fresh human bone marrow aspirates from healthy donors were purchased from Stemcell Technology Inc. (Catalog No. 70502) and AllCells Inc. and were processed to lyse red blood cells and washed 5 times with buffer or serum-free media. […] An equal volume of AF647-labeled c225 activatable antibodies prepared at 40 μg/mL in serum-free RPMI media were then added to form a mixture and incubated at a final concentration of 20 μg/mL at 37° C. for 21 or 24 hours. Cells were pelleted through centrifugation for 5 min at 300× g. Supernatants were collected from each incubated mixture and transferred into a well of a 96-well PCR plate for assay by capillary electrophoresis. Each supernatant sample was mixed with Pico Sample Buffer (Perkin Elmer) containing 2-beta-mercaptoethanol at four parts sample and one part of Pico Sample Buffer and then heated at 95° C. for 10 minutes. Substrate cleavage was measured by capillary electrophoresis using a LabChip GXII Touch system (Perkin Elmer) with the HT Pico Protein Express 100 protocol (Perkin Elmer). Protein Express Assay LabChips (Perkin Elmer #760499) were set up using the protocol of the Protein Pico Assay Reagent Kit (Perkin Elmer #760498).

MMP2 [3] = target: T1, MMP2 (Homo sapiens, UniProt P08253); assay: Internally quenched peptide probe cleavage assay (Example 8); assay type: biochemical; conditions: 20 μM peptide probe, 20 nM protease, 37° C.
T1 sequence (P08253 110-660): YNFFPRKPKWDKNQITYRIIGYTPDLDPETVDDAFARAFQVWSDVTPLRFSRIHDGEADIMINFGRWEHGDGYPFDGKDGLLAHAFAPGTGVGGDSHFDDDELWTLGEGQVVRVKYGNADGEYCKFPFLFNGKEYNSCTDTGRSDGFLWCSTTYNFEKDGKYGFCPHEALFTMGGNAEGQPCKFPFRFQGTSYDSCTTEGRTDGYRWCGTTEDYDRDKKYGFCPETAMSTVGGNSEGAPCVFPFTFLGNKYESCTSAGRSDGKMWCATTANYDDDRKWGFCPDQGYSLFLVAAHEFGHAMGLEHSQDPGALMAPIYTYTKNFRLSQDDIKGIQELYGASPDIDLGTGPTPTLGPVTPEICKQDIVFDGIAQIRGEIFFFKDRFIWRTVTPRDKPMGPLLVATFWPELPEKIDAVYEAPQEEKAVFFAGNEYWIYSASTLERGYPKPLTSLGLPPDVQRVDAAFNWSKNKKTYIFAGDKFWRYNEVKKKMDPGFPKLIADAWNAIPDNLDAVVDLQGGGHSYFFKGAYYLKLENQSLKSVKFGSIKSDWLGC
Source text: (§1) The study provided herein evaluated the cleavability kinetics (i.e., pM/s and kcat/KM (M^−1 s^−1) of CMs with matriptase (MT-SP1) and matrix metalloprotease (MMP) 2 (MMP2), MMP9, and MMP14. The CMs listed in Table 10 below were presented in an internally quenched peptide probe format, rather than included in an activatable antibody format. In the internally quenched probes, the CM sequence was positioned between a 7-methoxycoumarin-4-acetyl (MCA) fluorophore and a 2,4-dinitrophenyl (DNP) quencher such that cleavage of the CM sequence produced a fluorescence signal. The probes were of the following designs: (MCA)-Gly-Ser-X1-X2-Pro-X3-Gly-Leu-X4-X5-Gly-Ser-Lys (DNP)-D-Arg (SEQ ID NO: 178) where X1 is Arg or is absent, X2 is Ser or is absent, X3 is Met or Trp, X4 is Lys, Arg, or is absent, and X5 is Ser or is absent; (MCA)-Ser-X1-Pro-X2-Gly-Leu-X3-X4-Gly-Ser-Lys (DNP)-D-Arg (SEQ ID NO: 179) where X1 is Ala, X2 is Met, X3 is Lys, and X4 is His; and (MCA)-Gly-Ser-Pro-X1-Gly-Leu-X2-Gly-Gly-Ser-Lys (DNP)-D-Arg (SEQ ID NO: 180) where X1 is Met and X2 is Lys, as indicated in Table 10. The cleavage rates (pM/s) were measured using 20 μM internally quenched peptide probe and 20 nM MT-SP1, MMP2, MMP9, or MMP14. Cleavability kinetics (i.e., pM/s and kcat/KM (M^−1 s^−1)) were measured at 37° C. in 96- or 384-well plate format in the following buffers: 50 mM TRIS-HCl (pH 7.4), 150 mM NaCl, 0.05% Tween 20 for MT-SP1, 50 mM Tris-HCl (pH 7.5), 10 mM CaCl2, 150 mM NaCl, 0.05% (w/v) Brij-35 for MMP2 and MMP9, and 50 mM HEPES (pH 6.8), 10 mM CaCl2), 0.5 mM MgCl2, 0.05% (w/v) Brij-35 for MMP14. Cleavability kinetics were determined on an Infinite 200 PRO (Tecan) multimode plate reader using a fluorescence excitation wavelength of 320 nm and an emission wavelength of 405 nm.

MT-SP1 [4] = target: T2, MT-SP1 (Homo sapiens, UniProt Q9Y5Y6); assay: as above; assay type: biochemical; conditions: 20 μM peptide probe, 20 nM protease, 37° C.
T2 sequence (Q9Y5Y6 615-855 limits assumed): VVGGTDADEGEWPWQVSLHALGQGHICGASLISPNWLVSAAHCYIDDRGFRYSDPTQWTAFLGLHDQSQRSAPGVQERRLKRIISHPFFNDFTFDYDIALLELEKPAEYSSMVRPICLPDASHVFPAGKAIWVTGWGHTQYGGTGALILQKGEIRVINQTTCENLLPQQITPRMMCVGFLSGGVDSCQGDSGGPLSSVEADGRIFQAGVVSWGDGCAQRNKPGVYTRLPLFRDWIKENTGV
Source text: as §1

MMP14 [5] = target: T3, MMP14 (Homo sapiens, UniProt P50281); assay: as above; assay type: biochemical; conditions: 20 μM peptide probe, 20 nM protease, 37° C.
Source text: as §1

MMP9 [6] = target: T4, MMP9 (Homo sapiens, UniProt P14780); assay: as above; assay type: biochemical; conditions: 20 μM peptide probe, 20 nM protease, 37° C.
T4 sequence (P14780 107-707 limits assumed): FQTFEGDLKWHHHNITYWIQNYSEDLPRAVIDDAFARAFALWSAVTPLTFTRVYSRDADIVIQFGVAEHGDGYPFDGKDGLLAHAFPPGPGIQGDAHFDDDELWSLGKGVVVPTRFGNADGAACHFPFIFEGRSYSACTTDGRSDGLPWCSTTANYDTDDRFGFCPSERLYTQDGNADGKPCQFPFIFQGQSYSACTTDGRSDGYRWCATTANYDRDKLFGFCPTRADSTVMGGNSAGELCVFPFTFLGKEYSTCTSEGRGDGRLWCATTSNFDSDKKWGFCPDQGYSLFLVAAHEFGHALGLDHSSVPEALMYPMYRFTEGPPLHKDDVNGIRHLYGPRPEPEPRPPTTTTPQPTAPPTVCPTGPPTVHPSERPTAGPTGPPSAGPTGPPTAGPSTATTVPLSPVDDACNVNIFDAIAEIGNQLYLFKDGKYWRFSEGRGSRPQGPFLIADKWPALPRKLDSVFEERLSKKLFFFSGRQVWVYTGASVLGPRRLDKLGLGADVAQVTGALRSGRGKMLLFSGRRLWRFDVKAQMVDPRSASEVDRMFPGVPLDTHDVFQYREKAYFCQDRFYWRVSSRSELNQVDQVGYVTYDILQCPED
Source text: as §1

[7] = mouse
MMP2 [8] = target: T1, MMP2; assay: In vitro cleavability of activatable antibodies, capillary electrophoresis; assay type: biochemical; design: purchased R&D Systems 902-MP; conditions: for Cleavability (%) 4h MMP2: 500 nM activatable antibody, 10 nM protease, 4 hours at 37° C.
MMP9 [9] = target: T4, MMP9; assay: as above; assay type: biochemical; design: purchased R&D Systems 911-MP; key to Cleavability (%) 4h MMP9: “—” indicates below limit of quantification; conditions: for Cleavability (%) 4h MMP9: 500 nM activatable antibody, 10 nM protease, 4 hours at 37° C.
MT-SP1 [10] = target: T2, MT-SP1; assay: as above; assay type: biochemical; design: purchased R&D Systems 3946-SEB
Protocol: The studies provided herein evaluate the in vitro cleavability of activatable antibodies containing exemplary CMs that include a substrate cleavable by a matrix metalloprotease (MMP) and/or a substrate cleavable by a matriptase (MT-SP1).
Each activatable antibody (500 nM) was incubated with 10 nM of the indicated single protease for 4 hours at 37° C. Human recombinant proteases were purchased from R&D Systems: MT-SP1 (catalog No: 3946-SEB), MMP2 (catalog No: 902-MP), MMP9 (catalog No: 911-MP), and MMP14 (catalog No: 918-MP). […] Protease concentrations were determined by active site titration. Activity assays were performed in the following buffers: 50 mM TRIS-HCl (pH 7.4), 150 mM NaCl, 0.05% Tween 20 for MT-SP1, 50 mM Tris-HCl, 10 mM CaCl2), 150 mM NaCl, 0.05% (w/v) Brij-35, pH 7.5 for MMP2 and MMP9, and 50 mM HEPES (pH 6.8), 10 mM CaCl2), 0.5 mM MgCl2 for MMP14. Following incubation, the presence of cleavage product was determined by capillary electrophoresis for each protease enzyme using a LabChip GXII Touch system (Perkin Elmer) with the HT Protein Express 100 protocol (Perkin Elmer). LabChip GXII Touch HT Chips (Perkin Elmer #760499) were set up using the protocol of the Protein Express Assay Reagent Kit (Perkin Elmer #CLS960008).

recombinant EGFR = recombinant EGFR (Homo sapiens, UniProt P00533); assay: Solid-phase binding assay (ELISA) of anti-EGFR activatable antibodies; conditions: compared to activatable antibodies with control CM 2001
MMP14 [11] = target: T3, MMP14; assay: In vitro cleavability of activatable antibodies, capillary electrophoresis; assay type: biochemical; design: key to Cleavability (%) 4h MMP14: “—” indicates below limit of quantification; conditions: for Cleavability (%) 4h MMP14: 500 nM activatable antibody, 10 nM protease, 4 hours at 37° C.; for percent activation for MMP14: Tables 6A-6C, activatable antibody format
[12] = Tables 6A-6C, activatable antibody format

Substance: APMGLKH [CM 7046, also tested as internally quenched peptide probe]
- in vivo efficacy (mean tumor volume, FIG. 2A) [1]: comparable with the activatable antibody with the control CM 2001
- in situ cleavage in human bone marrow aspirates (FIG. 3) [2]: demonstrated a resistance to cleavage in situ in the bone marrow
- Probe Cleavage (pM/s) MMP2 (MMP2 [3]): 81700 pM/s
- Probe Cleavage (pM/s) MT-SP1 (MT-SP1 [4]): 3330 pM/s
- Probe Cleavage (pM/s) MMP14 (MMP14 [5]): 114000 pM/s
- Probe Cleavage (pM/s) MMP9 (MMP9 [6]): 115000 pM/s
- in vivo stability versus control CMs [7]: higher in vivo stability
- Cleavability (%) 4h MMP2 (MMP2 [8]): 95.7%
- percent activation for MMP2 (MMP2 [8]; [12]): greater than 90%
- Cleavability (%) 4h MMP9 (MMP9 [9]): 45.1%
- percent activation for MMP9 (MMP9 [9]; [12]): greater than 30%
- Cleavability (%) 4h MT-SP1 (MT-SP1 [10]): 5.37%
- effect of CM on apparent masking efficiency (recombinant EGFR): increasing the apparent masking efficiency
- Cleavability (%) 4h MMP14 (MMP14 [11]): 95.3%
- percent activation for MMP14 (MMP14 [11]): greater than 90%

Substance: GPWGLL [CM 7043]
- in vivo stability versus control CMs [7]: higher in vivo stability
- In Vivo % Activation (nu/nu, day 7) ([7]; ip, 10 mg/kg): 44%
- Cleavability (%) 4h MMP2 (MMP2 [8]): 86.0%
- Cleavability (%) 4h MMP9 (MMP9 [9]): 96.2%
- Cleavability (%) 4h MMP14 (MMP14 [11]): 77.6%

Substance: GPYGLL [CM 7048]
- Cleavability (%) 4h MMP2 (MMP2 [8]): 96.1%
- Cleavability (%) 4h MMP9 (MMP9 [9]): 98.3%
- Cleavability (%) 4h MMP14 (MMP14 [11]): 66.3%

Substance: ISSGLLSGRSDNH [CM 2001, reference compound]
- Cleavability (%) 4h MMP2 (MMP2 [8]): 50.6% and 44.1% and 52.2%
- Cleavability (%) 4h MMP9 (MMP9 [9]): —
- Cleavability (%) 4h MT-SP1 (MT-SP1 [10]; 500 nM activatable antibody, 10 nM protease, 4 hours at 37° C.): 30.5%
- Cleavability (%) 4h MMP14 (MMP14 [11]): 82.2% and 80.2% and 92.9%

Substance: PMGLK (also: internally quenched fluorophore/quencher probe, groups not placed) [CM 7019, tested as internally quenched peptide probe]
- Probe Cleavage (pM/s) MMP2 (MMP2 [3]): 4690 pM/s
- Probe Cleavage (pM/s) MT-SP1 (MT-SP1 [4]): 46.1 pM/s
- Probe Cleavage (pM/s) MMP14 (MMP14 [5]): 5950 pM/s
- Probe Cleavage (pM/s) MMP9 (MMP9 [6]): 6080 pM/s

Substance: PMGLKS (also: internally quenched fluorophore/quencher probe, groups not placed) [CM 7018, tested as internally quenched peptide probe]
- Probe Cleavage (pM/s) MMP2 (MMP2 [3]): 119000 pM/s
- Probe Cleavage (pM/s) MT-SP1 (MT-SP1 [4]): 14100 pM/s
- Probe Cleavage (pM/s) MMP14 (MMP14 [5]): 153000 pM/s
- Probe Cleavage (pM/s) MMP9 (MMP9 [6]): 133000 pM/s

Substance: PWGL [CM 7041, also tested as internally quenched peptide probe]
- Cleavability (%) 4h MMP2 (MMP2 [8]): 15.8%
- Cleavability (%) 4h MMP9 (MMP9 [9]): 12.3%
- Cleavability (%) 4h MMP14 (MMP14 [11]): —

Substance: PWGLRS [tested as internally quenched peptide probe]
- Probe Cleavage (pM/s) MMP2 (MMP2 [3]): 3800 pM/s
- Probe Cleavage (pM/s) MT-SP1 (MT-SP1 [4]): 1230 pM/s
- Probe Cleavage (pM/s) MMP14 (MMP14 [5]): 4380 pM/s
- Probe Cleavage (pM/s) MMP9 (MMP9 [6]): 3830 pM/s

Substance: PWGLS [CM 7045]
- Cleavability (%) 4h MMP2 (MMP2 [8]): 40.2%
- Cleavability (%) 4h MMP9 (MMP9 [9]): 74.5%
- effect of CM on apparent masking efficiency (recombinant EGFR): increasing the apparent masking efficiency
- Cleavability (%) 4h MMP14 (MMP14 [11]): 15.6%
- percent activation for MMP14 (MMP14 [11]): greater than 10%

Substance: PYGL [CM 7047, also tested as internally quenched peptide probe]
- Cleavability (%) 4h MMP2 (MMP2 [8]): 27.5%
- Cleavability (%) 4h MMP9 (MMP9 [9]): 19.2%
- Cleavability (%) 4h MMP14 (MMP14 [11]): —

Substance: RSPWGL [tested as internally quenched peptide probe]
- Probe Cleavage (pM/s) MMP2 (MMP2 [3]): 11700 pM/s
- Probe Cleavage (pM/s) MT-SP1 (MT-SP1 [4]): 2390 pM/s
- Probe Cleavage (pM/s) MMP14 (MMP14 [5]): 9580 pM/s
- Probe Cleavage (pM/s) MMP9 (MMP9 [6]): 25500 pM/s
